Test [1] has as its target BtuC2D2 (E. coli vitamin B12 ABC transporter, core transporter: ATPase + permease) (E. coli) (UniProt P06609). The experiment in a line: SPR; fresh (naive) His-BtuC2D2 (1500-2000 RU) immobilised on a Ni-NTA chip, apo FLAG-BtuF injected at 0.1-2 uM; Biacore T200, 25 °C, 50 mM Tris-HCl pH 7.5, 150 mM NaCl, 0.1% LDAO, 15 uL/min. In general terms: Surface plasmon resonance follows binding to a sensor surface in real time, without labels.

The target is the same in test [2]. Briefly: SPR; His-BtuC2D2 that had worked (100 uM ATP, 1 mM MgCl2) for 7 hours, nucleotides removed, immobilised on a Ni-NTA chip; apo FLAG-BtuF injected at 0.1-2 uM; 25 °C, 50 mM Tris-HCl pH 7.5, 150 mM NaCl, 0.1% LDAO.
The target is the same in test [3].

In general, Kd refers to the concentration at which binding is half-saturated. As a reminder, the koff is a measure of how fast the partners let go of each other. As usually defined, the kon is the rate constant with which the complex forms.

Chain of UniProt P06609 (P06609 whole entry, chain 1 of 2): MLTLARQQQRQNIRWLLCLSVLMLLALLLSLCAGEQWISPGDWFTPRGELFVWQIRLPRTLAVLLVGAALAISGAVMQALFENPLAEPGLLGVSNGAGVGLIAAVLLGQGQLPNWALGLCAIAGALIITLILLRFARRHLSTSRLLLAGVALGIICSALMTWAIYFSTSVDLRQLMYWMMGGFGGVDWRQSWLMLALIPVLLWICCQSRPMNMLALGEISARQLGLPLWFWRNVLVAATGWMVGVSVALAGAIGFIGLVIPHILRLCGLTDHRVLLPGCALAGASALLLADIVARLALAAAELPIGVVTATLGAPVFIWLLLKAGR
Chain of UniProt P06609 (P06611 whole entry, chain 2 of 2, further chain): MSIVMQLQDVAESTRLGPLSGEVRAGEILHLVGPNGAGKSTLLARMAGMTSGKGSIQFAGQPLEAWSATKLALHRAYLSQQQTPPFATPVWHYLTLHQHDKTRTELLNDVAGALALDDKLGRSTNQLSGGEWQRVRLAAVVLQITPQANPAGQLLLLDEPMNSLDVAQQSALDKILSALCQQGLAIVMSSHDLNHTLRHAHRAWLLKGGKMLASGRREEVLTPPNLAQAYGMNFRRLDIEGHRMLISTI

B1: BtuF, substrate binding protein (SBP) of the vitamin B12 transport system, FLAG-tagged (natural protein)
chain: APRVITLSPANTELAFAAGITPVGVSSYSDYPPQAQKIEQVSTWQGMNLERIVALKPDLVIAWRGGNAERQVDQLASLGIKVMWVDATSIEQIANALRQLAPWSPQPDKAEQAAQSLLDQYAQLKAQYADKPKKRVFLQFGINPPFTSGKESIQNQVLEVCGGENIFKDSRVPWPQVSREQVLARSPQAIVITGGPDQIPKIKQYWGEQLKIPVIPLTSDWFERASPRIILAAQQLCNALSQVD
With B1, in test [1], the Kd worked out at 0.036 nM, the koff was 1.2e-05 s⁻¹ and the kon is 280000 M⁻¹ s⁻¹. In test [2], the dissociation constant Kd came out at 0.037 nM, the improvement of BtuF binding of worked over fresh BtuC2D2 was 35 to 60%, the koff stood at 1.1e-05 s⁻¹ and the kon amounted to 290000 M⁻¹ s⁻¹. Also, in test [3], the uptake rate of 57Co vitamin B12 into proteoliposomes, BtuC2D2 that had worked 7 hours against its fresh precursor turned out to be 60%.

The record behind these values is publication PMC4765350.
